Measured values reported in patent US20240181094A1, “[161Tb]-BASED RADIOPEPTIDES” (priority 2021, published 2024).
Read-outs that look alike come from different tables or passages of the source. Starred links: 1 amine or outer side, 2 acyl side, 3 side chain; linkers in the order of their positions; H or OH if unused. Positions of bridges follow the written chain, without caps; N, C: chain ends. Non-standard residues stand in square brackets, D forms with d. Residues, ends and D or L forms follow the SMILES beside them. *: point of attachment. DOTA = O=C(O)CN1CCN(CC(=O)O)CCN(CC(=O)*)CCN(CC(=O)O)CC1; dPhe(4-NHCONH2) = NC(=O)Nc1ccc(C[C@@H](N)C(=O)O)cc1; X1 = NC(=O)Nc1ccc(CC(N[*:1])C(=O)[*:2])cc1; Phe(4-Cl) = N[CH](Cc1ccc(Cl)cc1)C(=O)O

Columns and labels:
[1] = test system: AR42J tumor-bearing mice; conditions: 0.2 nmol/mouse
Method: Five-week-old female, athymic nude mice (CD-1 Foxn-1/nu) were obtained from Charles River Laboratories (Sulzfeld, Germany). Mice were subcutaneously inoculated with AR42 J tumor cells (5×10^6 cells in 100 μl PBS) for SPECT/CT imaging, biodistribution and therapy studies. The SPECT/CT and biodistribution studies were performed 10-14 days after tumor cell inoculation when the tumor size reached a volume of ˜250 mm^3.
The mice were sacrificed at 0.5 h, 2 h, 4 h, 24 h and 48 h p.i, selected tissues and organs were collected, weighed, and the accumulated activity was counted using a γ-counter (Perkin Elmer). The decay-corrected data were listed as % IA/g. The data were analyzed for significance using a two-way ANOVA with Tukey's multiple comparison post-tests. A p-value of <0.05 was considered statistically significant.

[2] = mouse, in vivo
Method: Early side effects were assessed based on the RBW of each mouse which was monitored every second day. When an endpoint was reached or at the end of the study (after 49 days), relevant organs and tissues were collected, weighed and put into relation to the brain mass and body weight of the respective mouse. This allowed comparison of organ-to-brain and organ-to-body mass weight ratios. In addition, blood plasma parameters from blood collected immediately after euthanasia were measured.
RBW, organ mass and mass ratios at the endpoint. The RBW was monitored every second day. Mice were euthanized when a predefined endpoint criterion was reached or when the study was terminated at Day 49. RBWs, organ masses, organ mass ratios (kidney-to-brain, liver-to-brain and spleen-to-brain) and organ mass to body weight ratios (kidney-to-body mass, liver-to-body mass and spleen-to-body mass) were analyzed for significance using a one-way ANOVA test with a Tukey's multiple comparisons post-test. A p-value of <0.05 was considered as statistically significant.
Blood plasma chemistry: Immediately before euthanasia of the mice that reached the endpoint, blood was sampled from the retrobulbar vein. The values of creatinine (CRE), blood urea nitrogen (BUN), alkaline phosphatase (ALP), total bilirubin (TBIL) and albumin (ALB) were determined in the plasma after centrifugation of the blood using a dry chemistry analyzer (DRI-CHEM 4000 i, FUJIFILM, Japan). The average blood plasma parameters of each group were analyzed for significance using a one-way ANOVA test with a Tukey's multiple comparisons post-test. A p-value of <0.05 was considered as statistically significant.

[3] = in vivo; conditions: female, athymic nude CD-1 Foxn-1/nu, mouse, iv, 1 nmol/mouse, total radioactivity

For `CC(O)C1NC(=O)C(CCCCN)NC(=O)C(Cc2ccc(NC(N)=O)cc2)NC(=O)C(Cc2ccc(O)cc2)NC(=O)C(NC(=O)C(Cc2ccc(Cl)cc2)NC(=O)CN2CCN(CC(=O)O)CCN(CC(=O)O)CCN(CC(=O)O)CC2)CSSCC(C(=O)NC(Cc2ccc(O)cc2)C(N)=O)NC1=O` (centres unmarked) [metal not drawn] ({DOTA}-[Phe(4-Cl)]CY[X1]KTCY-NH2; disulfide 2-7; configuration not given here), the Blood uptake ([1]; 0.5 h p.i.) was 1.3 ± 0.2 % IA/g, the Blood uptake ([1]; 2 h p.i.) was no more than 0.10 % IA/g and the Muscle uptake ([1]; 2 h p.i.) was no more than 0.10 % IA/g. It also gave a Spleen uptake ([1]; 2 h p.i.) of 0.41 ± 0.08 % IA/g, a Blood uptake ([1]; 4 h p.i.) of no more than 0.10 % IA/g and a Heart uptake ([1]; 4 h p.i.) of no more than 0.10 % IA/g. It also gave a Kidneys uptake ([1]; 4 h p.i.) of 9.0 ± 1.2 % IA/g, a Muscle uptake ([1]; 4 h p.i.) of no more than 0.10 % IA/g and a Blood uptake ([1]; 24 h p.i.) of no more than 0.10 % IA/g. The Heart uptake ([1]; 24 h p.i.) was no more than 0.10 % IA/g, the Muscle uptake ([1]; 24 h p.i.) was no more than 0.10 % IA/g and the Blood uptake ([1]; 48 h p.i.) was no more than 0.10 % IA/g. The Heart uptake ([1]; 48 h p.i.) was no more than 0.10 % IA/g, the Muscle uptake ([1]; 48 h p.i.) was no more than 0.10 % IA/g and the “ALB (albumin), plasma” value [2] was 22 ± 1 g/L. For the same compound, the “ALP (alkaline phosphatase), plasma” value [2] was 65 ± 15 U/L, the “Organ mass Brain” value [2] was 465 ± 30 mg and the “Organ mass Kidneys” value [2] was 332 ± 46 mg. For the same compound, the “Organ mass Liver” value [2] was 1275 ± 254 mg and the “Organ mass Spleen” value [2] was 85 ± 27 mg.

In the case of `C[C@@H](O)[C@@H]1NC(=O)[C@H](CCCCN)NC(=O)[C@@H](Cc2ccc(NC(N)=O)cc2)NC(=O)[C@H](Cc2ccc(O)cc2)NC(=O)[C@H](NC(=O)[C@H](Cc2ccc(Cl)cc2)NC(=O)CN2CCN(CC(=O)O)CCN(CC(=O)O)CCN(CC(=O)O)CC2)CSSC[C@@H](C(=O)N[C@H](Cc2ccc(O)cc2)C(N)=O)NC1=O` [metal not drawn] ({DOTA}-[Phe(4-Cl)][dC]Y[dPhe(4-NHCONH2)]KTC[dY]-NH2; disulfide 2-7), the “ALB (albumin), plasma” value [2] is reported as 23 ± 1 g/L, the “ALP (alkaline phosphatase), plasma” value [2] is reported as 66 ± 5 U/L and the “CRE (creatinine), plasma” value [2] is reported as 19 µmol/L. For the same compound, the “Organ mass Brain” value [2] was 471 ± 30 mg, the “Organ mass Kidneys” value [2] was 336 ± 13 mg and the “Organ mass Liver” value [2] was 1254 ± 106 mg. For the same compound, the “Organ mass Spleen” value [2] was 92 ± 17 mg, the tissue uptake at 2 h [3] was no more than 0.1 %ID/g and the tissue uptake at 24 h [3] was no more than 0.1 %ID/g.
